This data set concerns the target lysozyme (UniProt P00698 19-147). The data set is described as follows: AF4-UV (asymmetrical flow field-flow fractionation); concentration-dependent; among highest affinity with A80; PBS-Mg2+ buffer (also mobile phase; composition, pH and temperature not given in the material); 10 uL of 5 uM aptamer + 10 uL of 5, 10, 25 or 50 uM protein (1:1 to 1:10); detection at 260 nm; n = 3. Conditions: protein: commercial; label: none.

Sequence of lysozyme (P00698 19-147): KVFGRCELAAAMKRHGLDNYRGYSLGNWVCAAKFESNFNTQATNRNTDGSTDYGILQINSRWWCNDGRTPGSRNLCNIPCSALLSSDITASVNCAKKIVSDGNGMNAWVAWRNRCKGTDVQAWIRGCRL

As to GCAGCTAAGCAGGCGGCTCACAAAACCATTCGCATGCGGC (ssDNA) [A40], the binding result is reported as “binds”.

The values are drawn from publication PMC9242963, “FFF-based high-throughput sequence shortlisting to support the development of aptamer-based analytical strategies”.
